From publication PMC12221297, “Negative regulation of miRNA sorting into EVs is mediated by the capacity of RBP PCBP2 to impair the SYNCRIP-dependent miRNA loading”

Biological target: PCBP2 recombinant (Origene TP522190) (Mus musculus, UniProt Q61990 1-362)
Assay: pull-down; EMSA: REMSA binding buffer (LightShift kit), 4 ug extract, 0.5 pmol biotin-RNA, 30 min room temperature, native 6% PAGE 0.5x TBE; pull-down: streptavidin beads
Conditions: protein: commercial; label: 5' biotin

PCBP2 recombinant (Origene TP522190), sequence (Q61990 whole entry): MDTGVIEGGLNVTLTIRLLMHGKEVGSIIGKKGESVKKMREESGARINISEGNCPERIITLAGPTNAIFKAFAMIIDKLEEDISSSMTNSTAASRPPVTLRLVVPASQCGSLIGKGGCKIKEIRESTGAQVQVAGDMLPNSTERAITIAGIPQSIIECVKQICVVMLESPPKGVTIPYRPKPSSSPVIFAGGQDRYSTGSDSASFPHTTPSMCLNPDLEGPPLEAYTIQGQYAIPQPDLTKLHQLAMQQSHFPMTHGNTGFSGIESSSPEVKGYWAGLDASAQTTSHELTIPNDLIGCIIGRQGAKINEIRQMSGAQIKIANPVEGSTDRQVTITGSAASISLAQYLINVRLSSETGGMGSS

B1: miR-155-3p WT (Table 1: miR-155b-3p WT) (ssRNA)
RNA: CUCCUACCUGUUAGCAUUAAC
B1: binds.
